Laboratory results: PMC3903306

Columns and labels:
IpgC (Shigella flexneri) = IpgC (Shigella flexneri) (UniProt P0A2U4); assay: ITC
[1] = target: IpaB^1.226 (Shigella flexneri); assay: cross-linking
[2] = target: IpaB^28.226 (Shigella flexneri); assay: cross-linking
[3] = target: FM-IpaB^N1.226 (Shigella flexneri); assay: fluorescence polarisation
[4] = target: FM-IpaB^C28.226 (Shigella flexneri); assay: fluorescence polarisation
[5] = target: FM-IpaB^N28.226 (Shigella flexneri); assay: fluorescence polarisation
[6] = target: FM-IpaB^C1.226 (Shigella flexneri); assay: fluorescence polarisation

Row | Substance | Kd (IpgC (Shigella flexneri)) | dH (IpgC (Shigella flexneri)) | stoichiometry N (IpgC (Shigella flexneri)) | stoichiometry N [1] | stoichiometry N [2] | Kd [3] | Kd [4] | Kd [5] | Kd [6]
1 | IpaB^1.226 (domain or fragment) | 208 nM | 8.68 kcal/mol | 1.03 | 2 | – | – | – | – | –
2 | IpaB^28.226 (domain or fragment) | 2960 nM | 3.55 kcal/mol | 0.88 | – | 2 | – | – | – | –
3 | IpgC (from UniProt P0A2U4 1-155) (natural protein) | – | – | – | – | – | 199 nM | 501 nM | 411 nM | 59.5 nM
